± gives the standard deviation of the averaged measurements.
Test: total protein half-life in vivo (active degradation + dilution); higher = more stable protein
[1] = E. coli NCM3722 delta-clpP delta-lon delta-hslV, growth: N-lim chemostat, doubling time 6 h
[2] = E. coli NCM3722 delta-clpP, growth: N-lim chemostat, doubling time 6 h
[3] = wild type E. coli NCM3722, growth: C-lim chemostat, doubling time 3 h
[4] = wild type E. coli NCM3722, growth: C-lim chemostat, doubling time 6 h
[5] = wild type E. coli NCM3722, growth: C-lim chemostat, doubling time 12 h
[6] = wild type E. coli NCM3722, growth: P-lim chemostat, doubling time 12 h
[7] = E. coli NCM3722 delta-hslV, growth: N-lim chemostat, doubling time 6 h
[8] = E. coli NCM3722 delta-lon, growth: N-lim chemostat, doubling time 6 h
[9] = E. coli NCM3722 delta-smpB, growth: N-lim chemostat, doubling time 6 h
[10] = wild type E. coli NCM3722, growth: N-lim chemostat, doubling time 6 h
[11] = wild type E. coli NCM3722, growth: N-lim chemostat, doubling time 12 h
[12] = wild type E. coli NCM3722, growth: P-lim chemostat, doubling time 6 h

| Sequence | total protein half-life in vivo [1] [h] | total protein half-life in vivo [2] [h] | total protein half-life in vivo [3] [h] | total protein half-life in vivo [4] [h] | total protein half-life in vivo [5] [h] | total protein half-life in vivo [6] [h] | total protein half-life in vivo [7] [h] | total protein half-life in vivo [8] [h] | total protein half-life in vivo [9] [h] | total protein half-life in vivo [10] [h] | total protein half-life in vivo [11] [h] | total protein half-life in vivo [12] [h] |
| --- | --- | --- | --- | --- | --- | --- | --- | --- | --- | --- | --- | --- |
| MANIEIRQETPTAFYIKVHDTDNVAIIVNDNGLKAGTRFPDGLELIEHIPQGHKVALLDIPANGEIIRYGEVIGYAVRAIPRGSWIDESMVVLPEAPPLHTLPLATKVPEPLPPLEGYTFEGYRNADGSVGTKNLLGITTSVHCVAGVVDYVVKIIERDLLPKYPNVDGVVGLNHLYGCGVAINAPAAVVPIRTIHNISLNPNFGGEVMVIGLGCEKLQPERLLTGTDDVQAIPVESASIVSLQDEKHVGFQSMVEDILQIAERHLQKLNQRQRETCPASELVVGMQCGGSDAFSGVTANPAVGYASDLLVRCGATVMFSEVTEVRDAIHLLTPRAVNEEVGKRLLEEMEWYDNYLNMGKTDRSANPSPGNKKGGLANVVEKALGSIAKSGKSAIVEVLSPGQRPTKRGLIYAATPASDFVCGTQQVASGITVQVFTTGRGTPYGLMAVPVIKMATRTELANRWFDLMDINAGTIATGEETIEEVGWKLFHFILDVASGKKKTFSDQWGLHNQLAVFNPAPVT | 4.25 ± 0.3 | 2.43 | 2.1 ± 0.18 | 3.22 ± 0.48 | 3.39 ± 0.27 | 3.6 | – | – | – | – | – | – |
| MLILKNVTAVQLHPAKVQEGVDIAIENDVIVAIGDALTQRYPDASFKEMHGRIVMPGIVCSHNHFYSGLSRGIMANIAPCPDFISTLKNLWWRLDRALDEESLYYSGLICSLEAIKSGCTSVIDHHASPAYIGGSLSTLRDAFLKVGLRAMTCFETTDRNNGIKELQEGVEENIRFARLIDEAKKATSEPYLVEAHIGAHAPFTVPDAGLEMLREAVKATGRGLHIHAAEDLYDVSYSHHWYGKDLLARLAQFDLIDSKTLVAHGLYLSKDDITLLNQRDAFLVHNARSNMNNHVGYNHHLSDIRNLALGTDGIGSDMFEEMKFAFFKHRDAGGPLWPDSFAKALTNGNELMSRNFGAKFGLLEAGYKADLTICDYNSPTPLLADNIAGHIAFGMGSGSVHSVMVNGVMVYEDRQFNFDCDSIYAQARKAAASMWRRMDALA | 3.15 | – | 2.62 | 4.3 | 11.2 | – | – | – | – | – | – | – |
| MNFQQLKIIREAARQDYNLTEVANMLFTSQSGVSRHIRELEDELGIEIFVRRGKRLLGMTEPGKALLVIAERILNEASNVRRLADLFTNDTSGVLTIATTHTQARYSLPEVIKAFRELFPEVRLELIQGTPQEIATLLQNGEADIGIASERLSNDPQLVAFPWFRWHHSLLVPHDHPLTQISPLTLESIAKWPLITYRQGITGRSRIDDAFARKGLLADIVLSAQDSDVIKTYVALGLGIGLVAEQSSGEQEEENLIRLDTRHLFDANTVWLGLKRGQLQRNYVWRFLELCNAGLSVEDIKRQVMESSEEEIDYQI | 6.2 ± 1.1 | 2.47 ± 0.054 | 1.18 ± 0.11 | 1.156 ± 0.01 | 1.86 | 4.48 ± 0.47 | 0.454 | 0.652 | 0.654 | 1.04 ± 0.049 | 1.02 | 2.33 ± 0.71 |
| MNIRPLHDRVIVKRKEVETKSAGGIVLTGSAAAKSTRGEVLAVGNGRILENGEVKPLDVKVGDIVIFNDGYGVKSEKIDNEEVLIMSESDILAIVEA [P0A6F9] | 5.5416 ± 0.005 | 5.34 ± 0.43 | 3.051 ± 0.0027 | 6.27 ± 0.87 | 10.6 ± 1.3 | 12.5 ± 1.7 | 5.26 ± 0.4 | 6.18 ± 0.9 | 5.092 ± 0.02 | 5.03 ± 0.15 | 8.21 ± 0.97 | 5.36 ± 0.23 |
| MSKIFDFVKPGVITGDDVQKVFQVAKENNFALPAVNCVGTDSINAVLETAAKVKAPVIVQFSNGGASFIAGKGVKSDVPQGAAILGAISGAHHVHQMAEHYGVPVILHTDHCAKKLLPWIDGLLDAGEKHFAATGKPLFSSHMIDLSEESLQENIEICSKYLERMSKIGMTLEIELGCTGGEEDGVDNSHMDASALYTQPEDVDYAYTELSKISPRFTIAASFGNVHGVYKPGNVVLTPTILRDSQEYVSKKHNLPHNSLNFVFHGGSGSTAQEIKDSVSYGVVKMNIDTDTQWATWEGVLNYYKANEAYLQGQLGNPKGEDQPNKKYYDPRVWLRAGQTSMIARLEKAFQELNAIDVL [P0AB71] | 5.42 ± 0.2 | 5.14 ± 0.69 | 3.19 ± 0.097 | 5.67 ± 0.37 | 9.46 ± 0.69 | 12.19 ± 0.092 | 5.06 ± 0.15 | 5.07 ± 0.24 | 4.73 ± 0.32 | 4.87 ± 0.47 | 8.4 ± 0.15 | 5.84 ± 0.2 |
| MALLNIFDIAGSALTAQSQRLNVAASNLANADSVTGPDGQPYRAKQVVFQVNAAPGAATGGVKVADVIESQAPDKLVYEPGNPLADAKGYVKMPNVDVVGEMVNTMSASRSYQANVEVLNTVKSMMLKTLTLGQ [P0ABX2] | – | > 8 | 0.544 ± 0.33 | 0.417 | 1.79 ± 0.53 | – | – | – | > 8 | 3.6 | – | – |
| MKADNPFDLLLPAAMAKVAEEAGVYKATKHPLKTFYLAITAGVFISIAFVFYITATTGTGTMPFGMAKLVGGICFSLGLILCVVCGADLFTSTVLIVVAKASGRITWGQLAKNWLNVYFGNLVGALLFVLLMWLSGEYMTANGQWGLNVLQTADHKVHHTFIEAVCLGILANLMVCLAVWMSYSGRSLMDKAFIMVLPVAMFVASGFEHSIANMFMIPMGIVIRDFASPEFWTAVGSAPENFSHLTVMNFITDNLIPVTIGNIIGGGLLVGLTYWVIYLRENDHH [P0AC23] | 6.43 ± 0.36 | 7.27 ± 0.55 | 3.67 | – | – | – | – | 5.87 ± 0.32 | 6.66 ± 1.2 | 6.07 ± 0.59 | 11.5 ± 0.42 | 6.402 ± 0.033 |

Reference: the supplement of paper PMC11246515
